# Assay: soluble on expression in E. coli; label from the status in PepcDB or PDB records
row,Sequence,soluble on expression in E. coli
1,TLLPQVQEVAYNQMANAGYEGAVVAIKPSTGEILAMASTPSYDPSAIVNPDTAEQTWAALNADPGNPLLNHATQETLPPGSTFKVITTAAGLNAGYGPGSMLTGQDRITLPDGITTLENYAGQTCAGSQNVTLATAFQYSCNTAFVQMGIDVGKEKFDEAAHAFGVNDRYDLGVDMAPGTIGDVSDPSARGQSSIGQRDVAMSVLHNAVVAATVANGGKRMEPHLVNRIVGQDLKVIKETKPHQINEAVTPEVAATLTDLMRLSERHTAGYTGADIASKTGTAEHGEDSRNSNPHAWYIAFGPSANADVAVAVVVKNGGDAGQAATGGSVAAPIGRAVIAAAQAALAARG,not soluble
2,MTGLINAIPATNKDEYKNVGVYIEHRGDELKRPSIEMIGIGKQLARKVNEKLICVVIGDKVDGIAKEVGEYGCDIVLAAESPELAEYRTMPYAEIIGGYIQEYKPNIFLLAATRNGRDLASRIAVKSRTGITADCTVLDIDENRTLLANRPTYGESTLAEILCRNHRPQMATARPGIFPPAEKEKDHKYEVIKKKVDVDKKLLGKQILKFI,not soluble
3,NARTVVMVQFRDIEQETSMRRDLTRTEADLTRTEARLAAFLRNMAEGILVLDDDSRITYASEAASELLKVPVASLVGERFTEFCRAGQSRESVRRALELTTADGGSQSLRYEVELTPGERRWHAGSCQHIGIE,not soluble
4,MKSDDLERLEESQEMQQLIHAAKEQYEQEKSVHPPVAYAAFAQNLRERQKDGKMKAKQEPPERETFEVKGGKRSGISPWWLVAACLLGGIIGYGISTTSDRQEAGLERLAVADTVIVVRERVDTVYREVEVPSQPLVASRSTVKSKSTGLTKEHVKQSRKAVQKAEPAFISIEFLQQQQNLPDPNSECYAANGMTVAEGNYPFHLLATVPCK,not soluble
5,MKFKTNKLSLNLVLASSLLAASIPAFAVTGDTDQPIHIESDQQSLDMQGNVVTFTGNVIVTQGTIKINADKVVVTRPGGEQGKEVIDGYGKPATFYQMQDNGKPVEGHASQMHYELAKDFVVLTGNAYLQQVDSNIKGDKITYLVKEQKMQAFSDKGKRVTTVLVPSQLQDKNNKGQTPAQKKGN,soluble
6,MGSDKIHHHHHHMEQCNERPKVSVIIPVYNTCNYVQEALESICQQTLEELEIIVIDDGSTDCSRAIVEEIAIKDTRIQVYKQSNQGLSITRNQGLKFSTGEYIYFMDSDDFLEPDALELCYRKCTKEALDFVFFDAETFTIEPNIPESSFDYQRTLDLPEKICSGIDMLKTQLKTYKFKSSVCLNLFHREFICEERLSFYPGILHEDQLFMIQAYLHASKTGFIRRSFFHRRIRTNSIMTKKFTWKNMEGYLTVTNELLRELPIYPKTYHHTIFFFLRQMLDAAVWQAHTLSLPQRIKLFSLCLKYYRPYVTMRTLMVLLLKTSIHPRQ,not soluble
7,MKLIRGIHNLSQAPQEGCVLTIGNFDGVHRGHRALLQGLQEEGRKRNLPVMVMLFEPQPLELFATDKAPARLTRLREKLRYLAECGVDYVLCVRFDRRFAALTAQNFISDLLVKHLRVKFLAVGDDFRFGAGREGDFLLLQKAGMEYGFDITSTQTFCEGGVRISSTAVRQALADDNLALAESLLGHPFAISGRVVHGDELGRTIGFPTANVPLRRQVSPVKGVYAVEVLGLGEKPLPGVANIGTRPTVAGIRQQLEVHLLDVAMDLYGRHIQVVLRKKIRNEQRFASLDELKAQIARDELTAREFFGLTKPA,soluble
8,MSIFPTRDSRDLSSRRRSLIDWEFPQMALVPLDQVFDWAERSRQSLHDDIVNMHRNLFSLEPFTAMDNAFESVMKEMSAIQPREFHPELEYTQPGELDFLKDAYEVGKDGRLHFKVYFNVKNFKAEEITIKADKNKLVVRAQKSVACGDAAMSESVGRSIPLPPSVDRNHIQATITTDDVLVIEAPVNEPNYKAIKLSPEKGLAIQPSEVQERQLAVKNKEGLEIVTAEDGSKKIHLELKVDPHFAPKDVKVWAKGNKVYVHGVTGKEEKTENASHSEHREFYKAFVTPEVVDASKTQAEIVDGLMVVEAPLFK,soluble
9,MPILKHLLLKNRKQPMQKKFVATAVGYVPWGDGAAEYFYNLYEYEDGTRECEKFDGGQYYKIPENADFSTKAQVKAWIYGGAVPKSVLSYEALIDEMNENIKQRSQAGGEIDRQLEEALDKQLGRYKNNKKIKNYRKQLNLKHDSSALFLDGEEIYSVTACRINQKI,not soluble
10,KSVYLQSPYFIPDNSYINAIKIAAKSGVDVHLMIPCKPDHPLVYWATFSNASDLLSSGVKIYTYENGFIHSKMCLIDDEIVSVGTANMDFRSFELNFEVNAFVYDENLAKDLRVAYEHDITKSKQLTKESYANR,not soluble
11,MGSDKIHHHHHHMSLSAQKCGRFFVSIQTEFEQERPTHKGGEIGIDMGVTRFATLSNGEFFEPLNAFKTYKGKLAKLQKQLKNKVKFSKNWQKLKEKIGKLHHKIANCRKDFLHKISTQISKNHAMIYVEDLQVANMSKSAKGTVEAHGKNVKQKSGLNRAILDQSWFEFRRQLDYKTQWLGGFLVAVPPRDTSRTCPCCGHIAKENRETQAHFECVECGYRENADVVGGINVLARGLAIVQA,not soluble
12,GPGSMRRTFKKLGLSALRACRGAGAAGTAASAHTSGFARVPSMSAPTALTVPRRSASDAALADATRRELEEEMGRSDKPEQPTPPAGWQVVRKPGTCTFDLTKSFEGEDLVVRYSTNQDSDKANSHNIFVYITQKNGQTMQADLSIEEGELVLNNIRFYDEAALAKDTGAEAEAKRNELYTGPLVHELDYDLLNCVMTYLEKRGVDEKLGEFVVLYSFWAEQQDYEAWLTTMNKFAS,not soluble
13,MSLAAYSLPVDVEAEDCTLGNGAVVTTNVYGTQYPGYSGDGFVWVANSGTITLEVTIPENGMYELSTRCWMYLGKEDETRMQVISINGKSHSNYFIPNKGQWIDYSFGFFYLEAGKATIEIGSSGSWGFILYDKIYFDHADMPDHIIDPTPCDPNATPETRALMKYLTSVYGKYVISGQQEIYGNGNDGNYELEFDYIYEKTGKYPAIRGFDFMNYNPLYGWEDGTTARIIDWVKNRGGIATACWHINIPRDFASYKLGEPVDWTNCTYKPTSSFNTANCLDETTKEHAYLMMAIEDLAEQLLILQEQNIPILFRPFHEAEGYNNTDGSGAWFWWGSAGAEVYKELWKLLYKTLTEKYGIHNLIWEVNLYTYANSYEWYPGDEYVDIIGYDKYEGSPNTWGTSAASSLFLTLVNYTNDTKMVALTENDVIPDIQNIVNEEAWWLYFCPWYGDFLMSPRYNDPVLLNTIYNSEYVITLDELPENLYEYDGEIPDINYGDLNNDGNINSTDYMILKKYILKVLERMNVPEKAADLNGDGSINSTDLTILKRFIMKAITKFPVTQKEGHHHHHH,soluble
14,MNEINESYDTDSVREFTVSDADAGPYALAEGPDGALWFTLVHRGAVARRDPDDGRVTVHPVGDGPTVIAPGPDGALWFTEYRAHRIGRITPEGHYASFAPLTPEGGPFGITAGPDGAMWFTLSSADRVGRVTMDGEVTEHPAPGAFPSALTAGPDGALWCTLNQGNAIGRLTPDGHGTAYPLPTPGAAPVGIAAGPDGALWFTEIGAGRIGRITVTGDLTEYPLSDPAARPHAVTAGPNGALWFTEWGSGRVGRITVDGRVTSYPLSRTDCEPHGIAVHDGALWCALETGSLARIQVPA,soluble
15,MSLAKGIMLHEVGEQVDQYLLIKSSTKGIASNGKPFLTLMLQDQSGDIEAKLWDAKQSDEVTYAPQTIVKVVGDVHHYRGRTQLKLRNIRPVSEQENVNIDDFLETAPIPKNEMMDTITQYIFEMKNPNIQRITRFLVKKHEAEFMDYPAATKNHHEFVSGLAYHVVSMLNLAKAIADLYPSLDRDLLYAGVILHDLGKVKELSGPVSTSYTVEGNLLGHISIMVTELSKAAEELQIDSEEVLILQHLILSHHGKAEWGSPKPPMVKEAEILHYIDNLDAKMNMMDRALERVKPGEYTERVFALENRSFYKPTFHKEGGSHHHHHH,soluble
16,MQAGPALMRILPISTIKGKLNEFVDAVSSTQDQITITKNGAPAAVLVGADEWESLQETLYWLAQPGIRESIAEADADIASGRTYGEDEIRAEFGVPRRPHDYKDDDDK,soluble
17,MGSDKIHHHHHHMATDASGGVGEKAKDHVHVPYEVVSYYAARVALLECMSVGATPFTFLVQNFSGDEPYQKMIDGINRALGEANQAQATIAGSTESNMVLEQSCLGVTVIGRVHQSALKIGITPKDAGIALLGKPLVGEEVVSQEKDVFPLKQFDELLQEEGVYEIIPVGSKGVKYELEVLAATNEWNTLQVPVNGNVDLTKSSGPATSLLITFDGTMEALLKAKYSSWWTTLASKIST,not soluble

# Source: the DeepSol protein solubility set
